Data: patent publication US20140213531A1 (POLYPHOR, published 2014)
Bridges are numbered along the chain shown (N, C = ends). [ ]: non-standard residue; d: D form. AlloThr = allo threonine

T1: CathepsinG, from human neutrophils (human, UniProt P08311 21-244)
T1 sequence (looked up): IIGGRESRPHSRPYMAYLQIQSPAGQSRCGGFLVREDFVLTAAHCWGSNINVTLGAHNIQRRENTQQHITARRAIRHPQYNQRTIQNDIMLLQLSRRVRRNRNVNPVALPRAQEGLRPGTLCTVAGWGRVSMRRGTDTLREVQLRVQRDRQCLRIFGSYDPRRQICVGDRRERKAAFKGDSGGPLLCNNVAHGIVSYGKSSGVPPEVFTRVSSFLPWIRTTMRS

T2: Elastase from human neutrophils (human, UniProt P08246 30-247, limits assumed)
T2 sequence (looked up): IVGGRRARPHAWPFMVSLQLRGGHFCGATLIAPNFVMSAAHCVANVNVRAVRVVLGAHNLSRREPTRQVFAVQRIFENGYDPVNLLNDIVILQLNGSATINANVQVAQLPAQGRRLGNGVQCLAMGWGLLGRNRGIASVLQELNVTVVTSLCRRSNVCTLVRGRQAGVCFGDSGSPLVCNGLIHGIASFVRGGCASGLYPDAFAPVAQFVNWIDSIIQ

T3: Chymase, from human skin (human, UniProt P23946 22-247)
T3 sequence (looked up): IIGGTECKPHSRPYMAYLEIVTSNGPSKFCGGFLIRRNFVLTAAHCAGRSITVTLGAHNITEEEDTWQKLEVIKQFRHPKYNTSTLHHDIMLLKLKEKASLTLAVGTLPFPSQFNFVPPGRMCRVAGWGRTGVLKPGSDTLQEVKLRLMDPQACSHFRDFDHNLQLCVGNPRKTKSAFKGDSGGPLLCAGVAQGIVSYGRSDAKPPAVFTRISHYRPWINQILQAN

B1: Example 26 (peptide)
peptide: YCTKSDPPICY
HELM: PEPTIDE1{Y.C.T.K.S.D.P.P.I.C.Y.[dP].P}$PEPTIDE1,PEPTIDE1,2:R3-10:R3|PEPTIDE1,PEPTIDE1,1:R1-13:R2$$$V2.0
SMILES: CC[C@H](C)[C@@H]1NC(=O)[C@@H]2CCCN2C(=O)[C@@H]2CCCN2C(=O)[C@H](CC(=O)O)NC(=O)[C@H](CO)NC(=O)[C@H](CCCCN)NC(=O)[C@H]([C@@H](C)O)NC(=O)[C@@H]2CSSC[C@H](NC1=O)C(=O)N[C@@H](Cc1ccc(O)cc1)C(=O)N1CCC[C@@H]1C(=O)N1CCC[C@H]1C(=O)N[C@@H](Cc1ccc(O)cc1)C(=O)N2
B2: Example 31 (peptide)
peptide: XCTKSDPPICN
HELM: PEPTIDE1{[Nc1ccc(C[C@H](N[*:1])C(=O)[*:2])cc1].C.T.K.S.D.P.P.I.C.N.[dP].P}$PEPTIDE1,PEPTIDE1,2:R3-10:R3|PEPTIDE1,PEPTIDE1,1:R1-13:R2$$$V2.0
SMILES: CC[C@H](C)[C@@H]1NC(=O)[C@@H]2CCCN2C(=O)[C@@H]2CCCN2C(=O)[C@H](CC(=O)O)NC(=O)[C@H](CO)NC(=O)[C@H](CCCCN)NC(=O)[C@H]([C@@H](C)O)NC(=O)[C@@H]2CSSC[C@H](NC1=O)C(=O)N[C@@H](CC(N)=O)C(=O)N1CCC[C@@H]1C(=O)N1CCC[C@H]1C(=O)N[C@@H](Cc1ccc(N)cc1)C(=O)N2
B3: Example 1 (peptide)
peptide: FCTKSEPPICT
HELM: PEPTIDE1{F.C.T.K.S.E.P.P.I.C.T.[dP].P}$PEPTIDE1,PEPTIDE1,2:R3-10:R3|PEPTIDE1,PEPTIDE1,1:R1-13:R2$$$V2.0
SMILES: CC[C@H](C)[C@@H]1NC(=O)[C@@H]2CCCN2C(=O)[C@@H]2CCCN2C(=O)[C@H](CCC(=O)O)NC(=O)[C@H](CO)NC(=O)[C@H](CCCCN)NC(=O)[C@H]([C@@H](C)O)NC(=O)[C@@H]2CSSC[C@H](NC1=O)C(=O)N[C@@H]([C@@H](C)O)C(=O)N1CCC[C@@H]1C(=O)N1CCC[C@H]1C(=O)N[C@@H](Cc1ccccc1)C(=O)N2
B4: Example 2 (peptide)
peptide: FCTKSDPPICD
HELM: PEPTIDE1{F.C.T.K.S.D.P.P.I.C.D.[dP].P}$PEPTIDE1,PEPTIDE1,2:R3-10:R3|PEPTIDE1,PEPTIDE1,1:R1-13:R2$$$V2.0
SMILES: CC[C@H](C)[C@@H]1NC(=O)[C@@H]2CCCN2C(=O)[C@@H]2CCCN2C(=O)[C@H](CC(=O)O)NC(=O)[C@H](CO)NC(=O)[C@H](CCCCN)NC(=O)[C@H]([C@@H](C)O)NC(=O)[C@@H]2CSSC[C@H](NC1=O)C(=O)N[C@@H](CC(=O)O)C(=O)N1CCC[C@@H]1C(=O)N1CCC[C@H]1C(=O)N[C@@H](Cc1ccccc1)C(=O)N2
B5: Example 84 (peptide)
peptide: XCTASXPPQCY
HELM: PEPTIDE1{[Nle].C.T.A.S.[O=C([C@@H](N[*:1])C1CCCCC1)[*:2]].P.P.Q.C.Y.[dP].P}$PEPTIDE1,PEPTIDE1,2:R3-10:R3|PEPTIDE1,PEPTIDE1,1:R1-13:R2$$$V2.0
SMILES: CCCC[C@@H]1NC(=O)[C@@H]2CCCN2C(=O)[C@H]2CCCN2C(=O)[C@H](Cc2ccc(O)cc2)NC(=O)[C@@H]2CSSC[C@H](NC1=O)C(=O)N[C@@H]([C@@H](C)O)C(=O)N[C@@H](C)C(=O)N[C@@H](CO)C(=O)N[C@@H](C1CCCCC1)C(=O)N1CCC[C@H]1C(=O)N1CCC[C@H]1C(=O)N[C@@H](CCC(N)=O)C(=O)N2
B6: Example 3 (peptide)
peptide: FCTKSDPPICN
HELM: PEPTIDE1{F.C.T.K.S.D.P.P.I.C.N.[dP].P}$PEPTIDE1,PEPTIDE1,2:R3-10:R3|PEPTIDE1,PEPTIDE1,1:R1-13:R2$$$V2.0
SMILES: CC[C@H](C)[C@@H]1NC(=O)[C@@H]2CCCN2C(=O)[C@@H]2CCCN2C(=O)[C@H](CC(=O)O)NC(=O)[C@H](CO)NC(=O)[C@H](CCCCN)NC(=O)[C@H]([C@@H](C)O)NC(=O)[C@@H]2CSSC[C@H](NC1=O)C(=O)N[C@@H](CC(N)=O)C(=O)N1CCC[C@@H]1C(=O)N1CCC[C@H]1C(=O)N[C@@H](Cc1ccccc1)C(=O)N2
B7: Example 28 (peptide)
peptide: XCTKSDPPICT
HELM: PEPTIDE1{[O=C([C@H](CCc1ccccc1)N[*:1])[*:2]].C.T.K.S.D.P.P.I.C.T.[dP].P}$PEPTIDE1,PEPTIDE1,2:R3-10:R3|PEPTIDE1,PEPTIDE1,1:R1-13:R2$$$V2.0
SMILES: CC[C@H](C)[C@@H]1NC(=O)[C@@H]2CCCN2C(=O)[C@@H]2CCCN2C(=O)[C@H](CC(=O)O)NC(=O)[C@H](CO)NC(=O)[C@H](CCCCN)NC(=O)[C@H]([C@@H](C)O)NC(=O)[C@@H]2CSSC[C@H](NC1=O)C(=O)N[C@@H]([C@@H](C)O)C(=O)N1CCC[C@@H]1C(=O)N1CCC[C@H]1C(=O)N[C@@H](CCc1ccccc1)C(=O)N2

Key:
Assay in all cases: cell-based or functional assay
[1] = biological target: T1, CathepsinG, from human neutrophils
[2] = biological target: T2, Elastase from human neutrophils
[3] = biological target: Trypsin, Iodination grade, from human pancreas (human, UniProt P07477 24-247)
[4] = biological target: Chymotrypsin, from human pancreas (human, UniProt P17538 19-263)
Chymase, from human skin = biological target: T3, Chymase, from human skin
[5] = biological target: Thrombin, from Human Plasma, high activity (human, UniProt P00734 328-622)
[6] = biological target: Coagulation Factor Xa, from human plasma (human, UniProt P00742 41-488, limits assumed)
[7] = biological target: Urokinase from human urine (human, UniProt P00749 21-431, limits assumed)
[8] = biological target: Tryptase, from human lung (human, UniProt Q15661 31-275, limits assumed)
Tryptase, from human lung, sequence (Q15661 31-275 limits assumed): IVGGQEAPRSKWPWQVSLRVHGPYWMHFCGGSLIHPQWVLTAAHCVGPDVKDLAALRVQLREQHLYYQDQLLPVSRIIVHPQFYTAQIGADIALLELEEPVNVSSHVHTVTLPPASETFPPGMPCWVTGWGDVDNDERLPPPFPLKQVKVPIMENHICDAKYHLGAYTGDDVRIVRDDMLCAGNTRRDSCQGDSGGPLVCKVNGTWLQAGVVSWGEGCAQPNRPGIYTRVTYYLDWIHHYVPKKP

Chymotrypsin, from human pancreas, sequence (P17538 19-263): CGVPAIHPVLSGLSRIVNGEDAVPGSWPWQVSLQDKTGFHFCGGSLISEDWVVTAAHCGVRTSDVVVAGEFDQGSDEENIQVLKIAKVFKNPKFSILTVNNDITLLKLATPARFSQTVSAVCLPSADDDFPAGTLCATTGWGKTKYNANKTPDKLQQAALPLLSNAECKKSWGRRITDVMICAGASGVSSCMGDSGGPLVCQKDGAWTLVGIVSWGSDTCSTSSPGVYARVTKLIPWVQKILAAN
Coagulation Factor Xa, from human plasma, sequence (P00742 41-488 limits assumed): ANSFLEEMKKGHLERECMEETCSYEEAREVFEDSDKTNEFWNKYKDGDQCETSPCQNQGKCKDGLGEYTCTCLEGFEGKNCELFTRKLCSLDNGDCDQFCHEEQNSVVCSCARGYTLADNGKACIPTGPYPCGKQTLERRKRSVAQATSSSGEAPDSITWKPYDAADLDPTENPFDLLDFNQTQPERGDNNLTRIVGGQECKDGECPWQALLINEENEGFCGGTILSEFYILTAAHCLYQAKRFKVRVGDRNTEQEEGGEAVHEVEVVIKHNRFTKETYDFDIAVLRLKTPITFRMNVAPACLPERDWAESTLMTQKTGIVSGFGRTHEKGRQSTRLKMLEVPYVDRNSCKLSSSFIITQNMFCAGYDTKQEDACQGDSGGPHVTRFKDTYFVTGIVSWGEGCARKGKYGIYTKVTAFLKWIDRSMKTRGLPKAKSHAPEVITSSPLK

Binder	IC50 [1]	IC50 [2]	% inhibition at 100 µM [3]	% inhibition at 100 µM [4]	% inhibition at 100 µM (Chymase, from human skin)	% inhibition at 100 µM [5]	% inhibition at 100 µM [6]	% inhibition at 100 µM [7]	% inhibition at 100 µM [8]
B1	49 nmol	> 100000 nmol	84%	2.2%	0%	3%	6%	3.1%	66.4%
B2	34 nmol	> 100000 nmol	98%	15%	12%	10%	8%	15%	76%
cyclo(ICTKSDPAICR[dP]P) (disulfide 2-10) [Example 14]	52 nmol	> 100000 nmol	–	0%	42.3%	8.7%	6%	5.4%	84.2%
cyclo(ICTKSDPAICR[dP]P) (disulfide 2-10) [Example 52]	52 nmol	> 100000 nmol	–	0%	42.3%	8.7%	6%	5.4%	84.2%
B3	86 nmol	> 100000 nmol	92.6%	7.8%	0%	1.1%	5.7%	5.7%	0%
B4	84 nmol	> 100000 nmol	92%	2.9%	0%	9.2%	5.3%	0.9%	39.6%
B5	20200 nmol	18 nmol	10.8%	–	0%	20.6%	13.3%	10.4%	4.2%
cyclo(FCTK[AlloThr]DPPICS[dP]P) (disulfide 2-10) [Example 24]	71 nmol	> 100000 nmol	97%	1%	1.2%	3.5%	30%	5.1%	0%
B6	51 nmol	> 100000 nmol	92%	0%	1%	0%	4%	4%	68%
B7	39 nmol	> 100000 nmol	95%	32%	0%	12%	6%	1%	0%
